Measured values reported in publication doi:10.1101/2025.10.08.681078 (bioRxiv, 2025).

How the values were obtained:
[1] = molecular target: human MLC1 fused to C-terminal GFP (Homo sapiens (Human)., UniProt Q15049); assay: western blot
[2] = molecular target: mouse MLC1 fused to C-terminal GFP (Mus musculus (Mouse)., UniProt Q8VHK5); assay: western blot
[3] = molecular target: chicken MLC1 fused to C-terminal GFP (Gallus gallus, UniProt A0A1D5PIT5); assay: western blot
Flag-tagged human MLC1 = Flag-tagged human MLC1 (human, UniProt Q15049); assay: western blot
Flag-tagged mouse MLC1 = Flag-tagged mouse MLC1 (mouse, UniProt Q8VHK5); assay: western blot
endogenous human MLC1 = endogenous human MLC1 (Homo sapiens (Human)., UniProt Q15049); assay: immunostaining of cells or tissue
Flag::hMLC1::GFP = Flag::hMLC1::GFP (Homo sapiens (Human)., UniProt Q15049); assay: immunostaining of cells or tissue
endogenous mouse MLC1 = endogenous mouse MLC1 (Mus musculus (Mouse)., UniProt Q8VHK5); assay: co-IP
[4] = molecular target: T1, MLC1-derived peptide (antigen peptide of the cryo-EM complex) (Mus musculus); assay: cryo-EM structure
T1 chain: YDRMPTLERGRQDA

Measured: binding result

Sequence of mouse MLC1 fused to C-terminal GFP (Q8VHK5 whole entry, the tested form may be a part): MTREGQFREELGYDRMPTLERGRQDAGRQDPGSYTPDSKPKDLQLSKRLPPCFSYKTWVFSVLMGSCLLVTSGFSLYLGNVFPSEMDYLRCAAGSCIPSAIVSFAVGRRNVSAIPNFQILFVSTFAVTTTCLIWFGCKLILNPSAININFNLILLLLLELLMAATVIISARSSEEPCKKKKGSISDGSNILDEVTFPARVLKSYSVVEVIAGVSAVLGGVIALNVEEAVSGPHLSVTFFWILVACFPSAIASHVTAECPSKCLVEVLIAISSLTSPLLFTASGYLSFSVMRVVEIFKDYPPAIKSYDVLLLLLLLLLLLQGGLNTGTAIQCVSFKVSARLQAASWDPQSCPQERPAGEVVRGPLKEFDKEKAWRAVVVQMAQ
Sequence of endogenous mouse MLC1 (Q8VHK5 whole entry): as the sequence (Q8VHK5 whole entry, the tested form may be a part) above
Sequence of Flag-tagged mouse MLC1 (Q8VHK5 whole entry): as the sequence (Q8VHK5 whole entry, the tested form may be a part) above
Sequence of endogenous human MLC1 (Q15049 whole entry): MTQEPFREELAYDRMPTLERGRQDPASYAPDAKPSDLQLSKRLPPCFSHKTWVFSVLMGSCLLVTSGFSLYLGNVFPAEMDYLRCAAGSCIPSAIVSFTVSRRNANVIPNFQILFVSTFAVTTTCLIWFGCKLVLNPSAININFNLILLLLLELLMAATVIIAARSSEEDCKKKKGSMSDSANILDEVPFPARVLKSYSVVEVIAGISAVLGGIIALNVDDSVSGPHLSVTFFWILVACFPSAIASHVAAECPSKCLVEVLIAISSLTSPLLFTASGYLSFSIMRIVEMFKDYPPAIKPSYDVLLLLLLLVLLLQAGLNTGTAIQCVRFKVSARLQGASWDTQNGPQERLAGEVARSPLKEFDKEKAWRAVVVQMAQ
Sequence of Flag-tagged human MLC1 (Q15049 whole entry): as above
Sequence of Flag::hMLC1::GFP (Q15049 whole entry): as above
Sequence of human MLC1 fused to C-terminal GFP (Q15049 whole entry, the tested form may be a part): as the sequence (Q15049 whole entry) above

B1: monoclonal antibody 37E5 (anti-MLC1), whole IgG (antibody, V domains shown)
VH: QIQLVQSGPDLKKPGETVKISCKASGYTFTNYGMSWVKQAPGKVLKWMGWINTYTGEPTYADDFKGRFAFSLETSANTAYLQINNLKNEDTATYFCAREGATSGFPYWGQGTLVTVSA
VL: DIVMSQSPSSLAVSAGEKVTMSCRSSQSLLNSRTRKNYLAWYQQKPGQSPKLLIYWASTRESGVPDRFTGSGSGTDFTLTISSVQAEDLAVYYCKQSYDLPYTFGGGTKLEIK
binds: [1] | [2] | [3] | Flag-tagged human MLC1 | Flag-tagged mouse MLC1 | endogenous human MLC1 | Flag::hMLC1::GFP | endogenous mouse MLC1

B2: 37E5 Fab fragment (Fab, V domains shown)
VH: QIQLVQSGPDLKKPGETVKISCKASGYTFTNYGMSWVKQAPGKVLKWMGWINTYTGEPTYADDFKGRFAFSLETSANTAYLQINNLKNEDTATYFCAREGATSGFPYWGQGTLVTVSA
VL: DIVMSQSPSSLAVSAGEKVTMSCRSSQSLLNSRTRKNYLAWYQQKPGQSPKLLIYWASTRESGVPDRFTGSGSGTDFTLTISSVQAEDLAVYYCKQSYDLPYTFGGGTKLEIK
binds: [4]
